The test system of the data set is Escherichia coli TOP10. Briefly: shrunken log2 fold change of peptide-encoding DNA abundance (4.5 h post-induction vs induction); higher = less antimicrobial activity (less host growth inhibition). As to conditions: time post-induction: 4.5 h; library: site-saturation at positions 5, 18, 19, 20.

125 sequences from the supplement of paper PMC9112550, “Optimization of the antimicrobial peptide Bac7 by deep mutational scanning” (BMC Biology, 2022) can be followed below.
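Note: peptides expressed intracellularly from a pBAD plasmid library in pooled LB shake-flask culture, induced with 0.3% L-arabinose, DNA abundance read by NGS, three biological replicates, DESeq2 with apeglm shrinkage.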

Turning to RRIRVRPPRLPRPRPRPAMMPRP, the “shrunken log2 fold change” value is 0.464. In the case of RRIRERPPRLPRPRPRPPTNPRP, the “shrunken log2 fold change” value turned out to be 0.0754. RRIRVRPPRLPRPRPRPEIKPRP: the “shrunken log2 fold change” value is -0.107.

With RRIRVRPPRLPRPRPRPSASPRP, the “shrunken log2 fold change” value is -0.2.

On to RRIRHRPPRLPRPRPRPAGQPRP, for which the “shrunken log2 fold change” value was -0.00146. As for RRIRNRPPRLPRPRPRPKRRPRP, the “shrunken log2 fold change” value is 0.00183.

With RRIRNRPPRLPRPRPRPWDEPRP, the “shrunken log2 fold change” value came to 0.0165. As to RRIRARPPRLPRPRPRPFASPRP, the “shrunken log2 fold change” value turned out to be 0.0388. Under RRIRDRPPRLPRPRPRPHGIPRP stands -0.265. Take RRIRRRPPRLPRPRPRPQEFPRP: the “shrunken log2 fold change” value turned out to be 0.041. Consider RRIRDRPPRLPRPRPRPIYHPRP, for which the “shrunken log2 fold change” value was -0.827. In the case of RRIRERPPRLPRPRPRPDFQPRP it was -0.37; in that of RRIRSRPPRLPRPRPRPPCAPRP, 0.497. On to RRIRNRPPRLPRPRPRPFTMPRP, for which the “shrunken log2 fold change” value was -0.149. As to RRIRQRPPRLPRPRPRPQTMPRP, the “shrunken log2 fold change” value turned out to be 0.0333. Turning to RRIRLRPPRLPRPRPRPGEEPRP, the “shrunken log2 fold change” value turned out to be 0.143. With RRIRERPPRLPRPRPRPWSPPRP, the “shrunken log2 fold change” value is -0.0132.

Take RRIRPRPPRLPRPRPRPQTMPRP: the “shrunken log2 fold change” value turned out to be 0.235. Turning to RRIRARPPRLPRPRPRPMPNPRP, the “shrunken log2 fold change” value came out at 0.353. Regarding RRIRMRPPRLPRPRPRPDEVPRP, the “shrunken log2 fold change” value was determined as 0.00989. As to RRIRHRPPRLPRPRPRPVRMPRP, the “shrunken log2 fold change” value was determined as 0.246.

For RRIRRRPPRLPRPRPRPDGWPRP, the “shrunken log2 fold change” value is 1.45. For RRIRLRPPRLPRPRPRPITLPRP, the “shrunken log2 fold change” value was -0.553.

In the case of RRIRYRPPRLPRPRPRPKCLPRP, the “shrunken log2 fold change” value is -0.245.

With RRIRERPPRLPRPRPRPTHVPRP, the “shrunken log2 fold change” value worked out at 0.231.

As to RRIRARPPRLPRPRPRPAWHPRP, the “shrunken log2 fold change” value turned out to be 0.159.

For RRIRHRPPRLPRPRPRPTSSPRP, the “shrunken log2 fold change” value is -0.0142. In the case of RRIRMRPPRLPRPRPRPYQPPRP, the “shrunken log2 fold change” value came out at 0.0396. Under RRIRSRPPRLPRPRPRPDFSPRP stands 0.0706.

In the case of RRIRKRPPRLPRPRPRPPHAPRP, the “shrunken log2 fold change” value is 0.728. In the case of RRIRMRPPRLPRPRPRPNQHPRP it was -0.0206. In the case of RRIRKRPPRLPRPRPRPWLMPRP, the “shrunken log2 fold change” value came out at 0.0931. In the case of RRIRARPPRLPRPRPRPGFYPRP it was 0.0241. Turning to RRIRGRPPRLPRPRPRPSFPPRP, the “shrunken log2 fold change” value is -0.0674. In the case of RRIRGRPPRLPRPRPRPKVPPRP it was 0.447; in that of RRIRCRPPRLPRPRPRPTAIPRP, -0.273. Under RRIRRRPPRLPRPRPRPEGDPRP stands 0.956. Consider RRIRKRPPRLPRPRPRPEPGPRP, for which the “shrunken log2 fold change” value was found to be 0.608. For the sequence RRIRNRPPRLPRPRPRPGQYPRP, the “shrunken log2 fold change” value was found to be 0.0262. For the sequence RRIRYRPPRLPRPRPRPIMSPRP, the “shrunken log2 fold change” value is -0.114. In the case of RRIRQRPPRLPRPRPRPFVQPRP, the “shrunken log2 fold change” value was -0.0936.

Take RRIRGRPPRLPRPRPRPGPWPRP: the “shrunken log2 fold change” value is 0.484.

In the case of RRIRCRPPRLPRPRPRPFWYPRP, the “shrunken log2 fold change” value was -0.353. Turning to RRIRPRPPRLPRPRPRPDMDPRP, the “shrunken log2 fold change” value was -0.21. As for RRIRTRPPRLPRPRPRPMGDPRP, the “shrunken log2 fold change” value is -0.0264.

With RRIRCRPPRLPRPRPRPCVQPRP, the “shrunken log2 fold change” value was -0.153. Consider RRIRKRPPRLPRPRPRPHNTPRP, for which the “shrunken log2 fold change” value is -0.152. In the case of RRIRKRPPRLPRPRPRPGINPRP it was 0.369; in that of RRIRIRPPRLPRPRPRPDVSPRP, -0.121.

Take RRIRKRPPRLPRPRPRPAYLPRP: the “shrunken log2 fold change” value came to 0.105.

RRIRERPPRLPRPRPRPWYQPRP: the “shrunken log2 fold change” value was -0.219. As to RRIRERPPRLPRPRPRPSFQPRP, the “shrunken log2 fold change” value is -0.0708.

As for RRIRNRPPRLPRPRPRPAVVPRP, the “shrunken log2 fold change” value amounted to 0.251.

Take RRIRYRPPRLPRPRPRPTKRPRP: the “shrunken log2 fold change” value was -0.028.

Consider RRIRLRPPRLPRPRPRPAFGPRP, for which the “shrunken log2 fold change” value was 0.359.

With RRIRMRPPRLPRPRPRPTFQPRP, the “shrunken log2 fold change” value amounted to 0.428.

On to RRIRFRPPRLPRPRPRPDTVPRP, for which the “shrunken log2 fold change” value was -0.0794. With RRIRLRPPRLPRPRPRPYKCPRP, the “shrunken log2 fold change” value is -0.0222. Take RRIRSRPPRLPRPRPRPTKTPRP: the “shrunken log2 fold change” value was -0.0829. Under RRIRDRPPRLPRPRPRPKHTPRP stands 0.136; under RRIRERPPRLPRPRPRPTLQPRP, 0.125; under RRIRSRPPRLPRPRPRPCKSPRP, 0.00889. For the sequence RRIRGRPPRLPRPRPRPRQYPRP, the “shrunken log2 fold change” value was -0.0954. Consider RRIRYRPPRLPRPRPRPNENPRP, for which the “shrunken log2 fold change” value was -0.744. Turning to RRIRIRPPRLPRPRPRPGCMPRP, the “shrunken log2 fold change” value was -0.134.

For RRIRGRPPRLPRPRPRPAWEPRP, the “shrunken log2 fold change” value was 1.01. Turning to RRIRPRPPRLPRPRPRPSTTPRP, the “shrunken log2 fold change” value was -0.326. Turning to RRIRARPPRLPRPRPRPDCSPRP, the “shrunken log2 fold change” value is 0.958. Consider RRIRMRPPRLPRPRPRPYTAPRP, for which the “shrunken log2 fold change” value is 0.147. On to RRIRLRPPRLPRPRPRPCYDPRP, for which the “shrunken log2 fold change” value is 0.00693. For RRIRQRPPRLPRPRPRPAWSPRP, the “shrunken log2 fold change” value is 0.183.

As for RRIRWRPPRLPRPRPRPIDWPRP, the “shrunken log2 fold change” value turned out to be 0.45.

As to RRIRPRPPRLPRPRPRPEMSPRP, the “shrunken log2 fold change” value is 0.147. In the case of RRIRQRPPRLPRPRPRPNDWPRP it was 0.142; in that of RRIRDRPPRLPRPRPRPRMVPRP, -0.177.

With RRIRIRPPRLPRPRPRPEMFPRP, the “shrunken log2 fold change” value is 0.0821.

RRIRYRPPRLPRPRPRPGSMPRP: the “shrunken log2 fold change” value was -0.182. Take RRIRFRPPRLPRPRPRPSLKPRP: the “shrunken log2 fold change” value was -0.196. Turning to RRIRGRPPRLPRPRPRPSNDPRP, the “shrunken log2 fold change” value came out at 0.702. RRIRHRPPRLPRPRPRPSAKPRP: the “shrunken log2 fold change” value is -0.324. Regarding RRIRGRPPRLPRPRPRPTIFPRP, the “shrunken log2 fold change” value is 0.127. Under RRIRTRPPRLPRPRPRPAATPRP stands 0.247.

For RRIRFRPPRLPRPRPRPKDLPRP, the “shrunken log2 fold change” value amounted to 0.0796.

RRIRYRPPRLPRPRPRPGCYPRP: the “shrunken log2 fold change” value was -0.8. On to RRIRPRPPRLPRPRPRPCGDPRP, for which the “shrunken log2 fold change” value was 0.078. Take RRIRARPPRLPRPRPRPRTIPRP: the “shrunken log2 fold change” value turned out to be 0.148.

Consider RRIRIRPPRLPRPRPRPIIWPRP, for which the “shrunken log2 fold change” value is -0.167.

Regarding RRIRWRPPRLPRPRPRPDIQPRP, the “shrunken log2 fold change” value was found to be 0.27. For the sequence RRIRTRPPRLPRPRPRPDKSPRP, the “shrunken log2 fold change” value is -0.0816. As to RRIRFRPPRLPRPRPRPHETPRP, the “shrunken log2 fold change” value is -0.347. For the sequence RRIRQRPPRLPRPRPRPPGCPRP, the “shrunken log2 fold change” value stood at 0.342.

Take RRIRYRPPRLPRPRPRPKLHPRP: the “shrunken log2 fold change” value was -0.431. Take RRIRPRPPRLPRPRPRPGDVPRP: the “shrunken log2 fold change” value stood at 0.145. For the sequence RRIRDRPPRLPRPRPRPMQTPRP, the “shrunken log2 fold change” value was 0.0424.

Turning to RRIRPRPPRLPRPRPRPKLWPRP, the “shrunken log2 fold change” value turned out to be 0.683. RRIRPRPPRLPRPRPRPHEPPRP: the “shrunken log2 fold change” value is 0.239. On to RRIRPRPPRLPRPRPRPMQSPRP, for which the “shrunken log2 fold change” value was 0.524.

Take RRIRKRPPRLPRPRPRPFIAPRP: the “shrunken log2 fold change” value is -0.0583. For the sequence RRIRDRPPRLPRPRPRPLDIPRP, the “shrunken log2 fold change” value amounted to 0.0227. As to RRIRDRPPRLPRPRPRPYWAPRP, the “shrunken log2 fold change” value was -0.0312. On to RRIRRRPPRLPRPRPRPIHHPRP, for which the “shrunken log2 fold change” value was -0.207.

In the case of RRIRFRPPRLPRPRPRPVVHPRP, the “shrunken log2 fold change” value is -0.106.

In the case of RRIRLRPPRLPRPRPRPGVDPRP, the “shrunken log2 fold change” value came to 0.411. As for RRIRLRPPRLPRPRPRPDKYPRP, the “shrunken log2 fold change” value was -0.769.

Turning to RRIRGRPPRLPRPRPRPVSYPRP, the “shrunken log2 fold change” value was determined as 0.291.

RRIRCRPPRLPRPRPRPQRDPRP: the “shrunken log2 fold change” value was -0.304. In the case of RRIRYRPPRLPRPRPRPAFKPRP, the “shrunken log2 fold change” value is -0.145. For the sequence RRIRVRPPRLPRPRPRPYGPPRP, the “shrunken log2 fold change” value is -0.041. For RRIRNRPPRLPRPRPRPLSWPRP, the “shrunken log2 fold change” value is 0.235. As for RRIRQRPPRLPRPRPRPQENPRP, the “shrunken log2 fold change” value is -0.0517.

With RRIRNRPPRLPRPRPRPPVSPRP, the “shrunken log2 fold change” value was -0.401. For RRIRLRPPRLPRPRPRPDCWPRP, the “shrunken log2 fold change” value amounted to 0.362.

Consider RRIRWRPPRLPRPRPRPITHPRP, for which the “shrunken log2 fold change” value is -0.126.

Take RRIRMRPPRLPRPRPRPDMVPRP: the “shrunken log2 fold change” value is 1.9. Under RRIRNRPPRLPRPRPRPKLRPRP stands 0.00281; under RRIRYRPPRLPRPRPRPTPCPRP, -0.122.

For RRIRKRPPRLPRPRPRPLQAPRP, the “shrunken log2 fold change” value was 1.34. Consider RRIRVRPPRLPRPRPRPLAAPRP, for which the “shrunken log2 fold change” value is 0.152. In the case of RRIRTRPPRLPRPRPRPHNHPRP, the “shrunken log2 fold change” value was -0.802.

RRIRCRPPRLPRPRPRPYIVPRP: the “shrunken log2 fold change” value was -0.168. With RRIRSRPPRLPRPRPRPACIPRP, the “shrunken log2 fold change” value is -0.31. Under RRIRFRPPRLPRPRPRPIKMPRP stands -0.243; under RRIRFRPPRLPRPRPRPFNFPRP, -1.17. As to RRIRARPPRLPRPRPRPAPTPRP, the “shrunken log2 fold change” value is 0.838.

As for RRIRKRPPRLPRPRPRPFWTPRP, the “shrunken log2 fold change” value amounted to 0.0312.
